# Data as given in PMC10618197.
# How the values were obtained:
# [1] = biological target: AIDA-SpyCatcher fusion protein displayed on the OMV surface (Streptococcus pyogenes | not stated); experiment: SEC; 10 µM SpT-CF incubated with OMV isolates for 24 h at 4 °C; SEC-HPLC on Sepharose CL-4B in PBS pH 7.4; AUC of the OMV peak of the fluorescent chromatogram normalized to the AUC of the corresponding UV peak
# [2] = biological target: HbpD-SpyCatcher fusion protein displayed on the OMV surface (not stated | Streptococcus pyogenes); experiment: as above
# [3] = biological target: AIDA-SpyCatcher fusion protein displayed on the OMV surface (Streptococcus pyogenes | not stated); experiment: SDS-PAGE with in-gel fluorescence of the covalent adduct; 10 µM SpT-CF incubated with OMV isolates for 24 h at 4 °C; fluorescence of the specific band normalized to the OmpF band after PageBlue staining; 3 separate OMV isolates for each plasmid
# [4] = biological target: HbpD-SpyCatcher fusion protein displayed on the OMV surface (not stated | Streptococcus pyogenes); experiment: as above
substance,measurement,setting,value
carboxyfluorescein coupled SpyTag (peptide),fluorescence AUC of the OMV peak normalized to the UV AUC,[1],6.86 AU
same,fluorescence AUC of the OMV peak normalized to the UV AUC,[2],2.25 AU
same,SpT-CF band fluorescence normalized to the OmpF band,[3],6.55 AU
same,SpT-CF band fluorescence normalized to the OmpF band,[4],4.15 AU
